# T1: human interleukin-2 receptor β-chain (IL-2Rβ; CD122), recombinant protein (human, UniProt P14784 27-240)
# T1 construct: also called human IL-2R subunit CD122
# T1 sequence: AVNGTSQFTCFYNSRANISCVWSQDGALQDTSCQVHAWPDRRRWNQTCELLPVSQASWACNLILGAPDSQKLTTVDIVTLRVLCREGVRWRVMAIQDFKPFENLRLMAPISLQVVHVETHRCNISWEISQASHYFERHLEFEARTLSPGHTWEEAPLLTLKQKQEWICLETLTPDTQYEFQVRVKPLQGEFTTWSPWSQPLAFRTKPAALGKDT
# T2: human IL-2Rγ (common cytokine receptor γ-chain) (human, UniProt P31785 23-262, limits assumed)
# T2 construct: Recombinant human IL-2Rγ protein coated on the ELISA plate or immobilised on the CM5 chip; also called hu IL-2R; CD132
# T2 sequence: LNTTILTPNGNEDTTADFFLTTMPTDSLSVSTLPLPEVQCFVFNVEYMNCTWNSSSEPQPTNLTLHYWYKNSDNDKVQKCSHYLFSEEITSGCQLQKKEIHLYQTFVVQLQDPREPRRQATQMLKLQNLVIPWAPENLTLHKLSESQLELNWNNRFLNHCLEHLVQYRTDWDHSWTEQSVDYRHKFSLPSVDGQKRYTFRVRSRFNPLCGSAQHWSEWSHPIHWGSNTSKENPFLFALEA
# T3: mouse IL-2Rγ (mouse, UniProt P34902 23-263, limits assumed)
# T3 construct: Recombinant mouse IL-2Rγ protein coated on the ELISA plate or immobilised on the CM5 chip; also called mo IL-2R
# T3 sequence (looked up): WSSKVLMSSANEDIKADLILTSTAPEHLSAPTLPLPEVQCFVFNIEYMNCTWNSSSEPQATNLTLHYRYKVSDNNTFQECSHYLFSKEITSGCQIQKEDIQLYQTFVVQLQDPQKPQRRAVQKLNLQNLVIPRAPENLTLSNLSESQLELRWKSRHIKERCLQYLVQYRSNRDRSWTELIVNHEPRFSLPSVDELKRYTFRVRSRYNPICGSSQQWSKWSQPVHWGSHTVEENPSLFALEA
# T4: human common cytokine receptor γ-chain (γc; IL-2Rγ; CD132), recombinant protein (human, UniProt P31785 23-262)
# T4 construct: also called human IL-2R subunit CD132
# T4 sequence: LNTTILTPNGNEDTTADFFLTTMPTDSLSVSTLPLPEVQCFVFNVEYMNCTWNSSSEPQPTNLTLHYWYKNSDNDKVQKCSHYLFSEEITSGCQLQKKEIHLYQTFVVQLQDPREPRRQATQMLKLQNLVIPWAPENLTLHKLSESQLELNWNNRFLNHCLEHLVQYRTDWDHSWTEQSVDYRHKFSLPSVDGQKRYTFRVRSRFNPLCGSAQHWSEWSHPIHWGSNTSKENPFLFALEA
# How the values were obtained:
# [1] = target: T1, human interleukin-2 receptor β-chain …; experiment: P.E. off-rate SPR
# How it was run: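 CM5 chip, amine coupling (acetate buffer), ~2500 RU receptor. VHH P.E. flowed at 30 uL/min; off-rate read over 120 s.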
# [2] = target: T1, human interleukin-2 receptor β-chain …; experiment: P.E. binding ELISA
# How it was run: (§1)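 Human or mouse IL-2Rα, IL-2Rβ or IL-2Rγ protein coated directly overnight at 4° C, blocked with 4% Marvel/PBS for 1 hour.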
# [3] = target: T2, human IL-2Rγ (common cytokine receptor …); experiment: SPR off-rate ranking, periplasmic extract over immobilised human IL-2Rγ
# Experimental: (§2) SPR was performed to determine dissociation rates using Biacore 3000 instrument (GE Healthcare). Briefly, human and mouse IL-2R proteins were immobilized on carboxylmethyl dextran sensor chip (CM5) at approximately 2500 RUs using amine coupling in acetate buffer (GE Healthcare). The VHH-containing P.E. were loaded with a flow rate of 30 uL/min and the off-rates were measured over a 120s period.
# [4] = target: T2, human IL-2Rγ (common cytokine receptor …); experiment: binding ELISA, periplasmic extract on coated human IL-2Rγ
# Experimental: (§3) In a binding ELISA, human or mouse IL-2Rα, IL-2Rβ and IL-2Rγ proteins were coated directly on maxisorp microtiter plates overnight at 4° C. Free binding sites were blocked using 4% Marvel in PBS for 1 hour. Next, 1:5 dilution of P.E. in 1% Marvel/PBS were added to wells and incubated for 1 hour. […] Binding specificity was determined based on O.D. at 450 nm values compared to negative controls.
# mouse IL-2Rγ [5] = target: T3, mouse IL-2Rγ; experiment: binding ELISA, periplasmic extract on coated mouse IL-2Rγ
# Experimental: as §3
# mouse IL-2Rγ [6] = target: T3, mouse IL-2Rγ; experiment: SPR off-rate ranking, periplasmic extract over immobilised mouse IL-2Rγ
# Experimental: as §2
# [7] = target: T4, human common cytokine receptor γ-chain …; experiment: P.E. binding ELISA
# How it was run: as §1
koff [1] [s⁻¹],OD450 nm [2] [OD450 nm],koff [3] [s⁻¹],P.E. binding ELISA OD450 [4] [OD450 nm],P.E. binding ELISA OD450 (mouse IL-2Rγ [5]) [OD450 nm],koff (mouse IL-2Rγ [6]) [s⁻¹],OD450 nm [7] [OD450 nm],Binder
0.000471,0.355,–,–,–,–,–,"24-MP06E05 VHH (periplasmic extract) (VHH, soluble VHH in periplasmic extract) VHH: QVQLVESGGELVQGGASLRLSCAASGRTFSNANMAWFRQAPEKEREFVALITWSSGSTLYADSVKGRFTISRDNARKMVYLQMNSLKPEDTAVYYCAADGPPYSGTYYRYDTYDYWGQGTQVTVSS"
–,–,0.00131,0.983,0.686,0.00757,–,"FJ1427_P035MP07F11 (VHH, Tested as soluble VHH fragment in periplasmic extract (P.E.); also called Clone nr) VHH: QVQLVESGGGLVQAGGSLRLSCAASGRTLSRLAMGWFRQAPGKEREFVAVNSWGGDTFYADSVEGRFTYSRDNAKSAVYLQMNSLQPEDTAVYYCAAAPTSFATTAYSSSNSYAYWGQGTQVTVSS"
–,–,0.0027,0.485,–,–,–,"FJ1427_P035MP07A12 (VHH, Tested as soluble VHH fragment in periplasmic extract (P.E.); also called Clone nr) VHH: QVQLQESGGGLVQAGGSLRLSCAASGRTLSRYAMGWFRQAPGSEREFVAASSWGGDTFYADSVEGRFTFSRDNAKNAVYLQMNSLQPEDTAAYYCAAAPTSFPTTAYSSSNSYAYWGQGTQVTVSS"
–,–,0.00485,0.858,–,–,–,"FJ1427_P035MP07C11 (VHH, Tested as soluble VHH fragment in periplasmic extract (P.E.); also called Clone nr) VHH: QVQLVESGGGLVQAGASLRLSCAASGRTLSRYAMGWFRQAPGKEREFVAASSWGGDTYYADSVEGRFTFSRDNAKNAVYLQMNSLQPEDTAVYYCAGAPTSFATTAYSSSNSYAYWGQGTQVTVSS"
–,–,0.00305,0.956,0.05,0.0883,–,"FJ1427_P035MP07E12 (VHH, Tested as soluble VHH fragment in periplasmic extract (P.E.); also called Clone nr) VHH: QVQLVESGGGLVQAGGSLRLSCAASGRTLSRYAMGWFRQAPGKEREFVTANSWGGDTYYTDSVEGRFTFSRDNAKNAVYLQMNSLQPEDTAVYYCAAAPTSFATTAYSSSNSYTYWGQGTQVTVSS"
–,–,0.00252,1.32,0.057,0.066,–,"FJ1427_P035MP07H11 (VHH, Tested as soluble VHH fragment in periplasmic extract (P.E.); also called Clone nr; 664) VHH: QVQLVESGGGLVQPGGSLRLSCAASGRTLSRYAMGWFRQAPGKDREFVAASSWGGDTFYADSVEGRFTFSRDNAENATYLQMNSLQPEDTAVYYCAAAPTSFATTAYSSSNSYGSWGQGTQVTVSS"
–,–,0.00153,1.79,0.7,0.00766,–,"FJ1427_P035MP07B12 (VHH, Tested as soluble VHH fragment in periplasmic extract (P.E.); also called Clone nr) VHH: EVQLVESGGGLVQAGGSLRLSCAASGRTLSRYAMGWFRQAPGKEREYVAIDSWGGDTFYADSVEGRFTFSRDNAKNEVYLQMNSLQPEDTAVYYCAGAPTSFATTAYSSSNSYRYWGQGTQVTVSS"
–,–,0.00199,0.511,0.051,0.0122,–,"FJ1427_P035MP07D12 (VHH, Tested as soluble VHH fragment in periplasmic extract (P.E.); also called Clone nr; 668) VHH: QVQLVESGGGLVQAGGSLRLSCAASGRALSRLAMGWFRQAPGKEREFVVASSWGDDTFYADSVKGRFTFSRDNAKNTVYLQMNSLQPGDTAVYYCAAAPTSFATTAYSSSNSYAYWGQGTQVTVSS"
–,–,0.00351,0.999,0.046,0.099,–,"FJ1427_P035MP07G11 (VHH, Tested as soluble VHH fragment in periplasmic extract (P.E.); also called Clone nr) VHH: QVQLQESGGGLVQAGGSLRLSCAASGRTLSRYAMGWFRQAPGKEREFVTANSWGGDTYYADSVQGRFTFSRDNAKNTVYLQMNSLQPEDTAVYYCAAAPTSFATTAYSSSNSYAYWGQGTQVTVSS"
–,–,–,–,–,–,0.134,"35-MP07G01 VHH (periplasmic extract) (VHH, soluble VHH in periplasmic extract) VHH: QVQLQESGGGLVQGGGSLRLSCAASGGIFSSYAMGWFRQAPGKEREFVAAISRSGRSTNYADSVKGRFTISRDNAKSTVYLQMNSLKPEETAVYYCAAGRYYNSAYDPSPGDFGSWGHGTQVTVSS"

# The remaining lines, values behind:
Binder,koff [1] [s⁻¹],OD450 nm [2] [OD450 nm],koff [3] [s⁻¹],P.E. binding ELISA OD450 [4] [OD450 nm],P.E. binding ELISA OD450 (mouse IL-2Rγ [5]) [OD450 nm],koff (mouse IL-2Rγ [6]) [s⁻¹],OD450 nm [7] [OD450 nm]
"20-MP03F10 VHH (periplasmic extract) (VHH, soluble VHH in periplasmic extract) VHH: EVQLVESGGGLVQAGGSLRLSCAASGRDFSSYAMGWFRQAPGKEREFVVAITWTKRSTDFPDSVKGRFTISRDNAKNTVYLDMNSLKPEDTAVYYCASARGLPVTPLGDIIYWGEGTLVTVSS",0.000595,0.497,–,–,–,–,–
"22-MP03F12 VHH (periplasmic extract) (VHH, soluble VHH in periplasmic extract) VHH: EVQLVESGGGLVQAGGSLRLSCAASGSIFSINAMAWFRQVPGMERELVAAISRDGGASVYRDSVKGRFTISRDNSKNTVYLQMNTLKPEDTAIYVCAATRAIGWTARWITTDFDFWGQGTQVTVSS",0.000419,0.781,–,–,–,–,–
"17-MP02C09 VHH (periplasmic extract) (VHH, soluble VHH in periplasmic extract) VHH: QVQLQESGGGLVQAGGSLRLSCVASGSVSSINGMAWYRQGADNQRVLVAAISRVGNTAYGDSVKGRFTISRQNARNTVYLQMNSLKPEDTAVYYCNADSWGGDDYWGQGTQVTVSS",0.000848,1.21,–,–,–,–,–
"18-MP03C03 VHH (periplasmic extract) (VHH, soluble VHH in periplasmic extract) VHH: QVQLVESGGGLVQPGGSLRLSCAISGGTLDSYGIGWVRQAPGKQREGVSCMSRSDDRTYYADSVKGRFTISKDSAKNTVYLQMTSLKPEDTAVYYCAAVDAYGCSLVQPTTYDFWGLGTQVTVSS",0.000594,0.405,–,–,–,–,–
"26-MP06A07 VHH (periplasmic extract) (VHH, soluble VHH in periplasmic extract) VHH: QVQLQESGGGLVQAGGSLRLSCAASGDVFVRYTMAWFRQAPGKEREFVASVTDSGRTTEYVDSVKGRFTVSRDNAKNTAYLQMNNLKPEDTAIYYCAANTDYFQIRSLDLNTWGQGTQVTVSS",0.000363,1.03,–,–,–,–,–
"23-MP06F03 VHH (periplasmic extract) (VHH, soluble VHH in periplasmic extract) VHH: QVQLVESGGGLVQAGGSLRLSCAVSGDVFVRYTMAWFRQAPGKEREFVASVTDSGRTTDYVHSVKGRFTVSRDNAKNTVYLQMNNLKPEDTAVYYCAANTDYFQIKSLDANTWGQGTQVTVSS",0.00105,0.54,–,–,–,–,–
"19-MP03F08 VHH (periplasmic extract) (VHH, soluble VHH in periplasmic extract) VHH: EVQLVESGGGLVQTGGSLRLSCAASGGTFSRDAMAWFRQVPGKEREFVALISWSGATTNYADSVKGRFAISRDNGKNTVYLQMNRLKPADTAIYYCAADRRPMGSRSYFEPTEYDDWGQGTQVTVSS",0.000296,0.245,–,–,–,–,–
"FJ1427_P035MP07E11 (VHH, Tested as soluble VHH fragment in periplasmic extract (P.E.); also called Clone nr) VHH: QVQLVESGGGLVQAGGSLRLSCAASGRTLSRYAMGWFRQAPGKEREFVTANSWGGDTYYADSVQGRFTFSRDNAKNTVYLQMNSLQPEDTAVYYCAAAPTSFATTAYSSSNSYAYWGQGTQVTVSS",–,–,0.00304,0.398,0.045,0.109,–
"16-MP02B08 VHH (periplasmic extract) (VHH, soluble VHH in periplasmic extract) VHH: EVQLVESGGGLVQAGGSLRLSCAASGRAIENYPVGWFRQAPGKEREFVAAITWISGSTLYADSVKGRFTISRDNAKNTVYLQMSSLKPEDTALYYCAAALKTITRGQNDYSYWGQGTQVTVSS",0.000141,1.38,–,–,–,–,–
"15-MP02E06 VHH (periplasmic extract) (VHH, soluble VHH in periplasmic extract) VHH: QVQLVESGGGSVQPGGSLRLSCAASGFTFSNYAMSWVRQAPGKGLEWVASITGFGRGTDYADSVKGRFTISRDNAEDTLYLQMNSLKPEDTAVYYCAKYSSSTYYPPTPARGRDYRGQGTQVTVSS",0.00169,0.581,–,–,–,–,–

# Source: US20240409645A1 (DUALYX, published 2024)
